Experimental data from patent publication US9988424 (DUKE UNIVERSITY, dated 2018).
Like-named read-outs stand apart in the source and are kept apart here.

Columns and labels:
C.CAP206 gp140CF.12 = C.CAP206 gp140CF.12 (HIV-1); test: ELISA
AE.A244 V1V2 Tags [1] = target: AE.A244 V1V2 Tags (HIV-1); test: ELISA
AE.A244 gp120 delta 11 [2] = target: T1, AE.A244 gp120 delta 11 (HIV-1); test: ELISA
T1 construct: also called E.A244gp120Δ11; AE.A244 Δ11 gp120

C.1086 V1V2 Tags [3] = target: C.1086 V1V2 Tags (HIV-1); test: ELISA
gp70 C.1086 V1/V2 [4] = target: T2, gp70 C.1086 V1/V2 (HIV-1 V1V2 on murine leukemia virus gp70); test: ELISA
T2 construct: also called C.gp70 1086C V1V2; C.1086gp70V1V2
T2 chain: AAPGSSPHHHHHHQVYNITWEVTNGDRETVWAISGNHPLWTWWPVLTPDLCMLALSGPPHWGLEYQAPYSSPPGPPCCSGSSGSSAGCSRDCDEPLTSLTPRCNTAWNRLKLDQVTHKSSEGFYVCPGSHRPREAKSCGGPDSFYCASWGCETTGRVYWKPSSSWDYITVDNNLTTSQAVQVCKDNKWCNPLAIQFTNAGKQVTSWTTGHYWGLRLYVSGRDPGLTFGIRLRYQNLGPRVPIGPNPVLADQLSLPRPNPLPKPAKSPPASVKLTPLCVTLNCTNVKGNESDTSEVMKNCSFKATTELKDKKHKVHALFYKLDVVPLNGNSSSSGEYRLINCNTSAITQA

AE.A244 V1V2 Tags [5] = target: AE.A244 V1V2 Tags (HIV-1); test: ELISA; remark: listed apart in the source
[6] = target: T3, gp70 B.CaseA2 V1/V2/V169K/E172V/E173H (HIV-1 V1V2 on murine leukemia virus gp70); test: ELISA
T3 construct: also called gp70 B.CaseA2 V1/V2 Mut3
T3 chain: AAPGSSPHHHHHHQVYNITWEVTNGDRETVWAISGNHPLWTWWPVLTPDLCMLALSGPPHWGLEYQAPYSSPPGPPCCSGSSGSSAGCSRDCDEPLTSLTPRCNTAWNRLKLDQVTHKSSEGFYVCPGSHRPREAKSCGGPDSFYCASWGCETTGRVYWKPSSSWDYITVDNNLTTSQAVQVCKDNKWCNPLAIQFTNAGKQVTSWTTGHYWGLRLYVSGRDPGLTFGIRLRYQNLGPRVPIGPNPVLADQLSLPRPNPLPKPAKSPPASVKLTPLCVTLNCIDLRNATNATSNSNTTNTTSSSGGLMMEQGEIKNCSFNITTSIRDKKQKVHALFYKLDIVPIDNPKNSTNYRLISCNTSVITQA

AE.A244 V1V2 Tags [7] = target: AE.A244 V1V2 Tags (HIV-1); test: ELISA; remark: listed apart in the source
AE.A244 gp120 delta 11 [8] = target: T1, AE.A244 gp120 delta 11; test: ELISA; remark: listed apart in the source
C.1086 V1V2 Tags [9] = target: C.1086 V1V2 Tags (HIV-1); test: ELISA; remark: listed apart in the source
gp70 C.1086 V1/V2 [10] = target: T2, gp70 C.1086 V1/V2; test: ELISA
Env of AE.92TH023 virus = Env of AE.92TH023 virus (HIV-1); test: cell-based or functional assay
Env of AE.CM244 virus = Env of AE.CM244 virus (HIV-1); test: cell-based or functional assay
[11] = target: Env of 92TH023 K169Q virus (HIV-1); test: cell-based or functional assay
[12] = target: Env of TH023.6.I181L virus (HIV-1); test: cell-based or functional assay
Env of 703357.c02 virus = Env of 703357.c02 virus (HIV-1); test: cell-based or functional assay
[13] = target: Env of 703357.2.Q169K virus (HIV-1); test: cell-based or functional assay
[14] = target: Env of 703357.2.Q169KR170Q virus (HIV-1); test: cell-based or functional assay
[15] = target: Env of 703357.2.I181L virus (HIV-1); test: cell-based or functional assay
[16] = target: Env of 703357.2.Q169KI181L virus (HIV-1); test: cell-based or functional assay
[17] = target: Env of 703357.2.Q169KR170QI181L virus (HIV-1); test: cell-based or functional assay
Env of 427299.c12 virus = Env of 427299.c12 virus (HIV-1); test: cell-based or functional assay
[18] = target: Env of 427299.c12.Q169K virus (HIV-1); test: cell-based or functional assay
[19] = target: Env of 427299.c12.H81L virus (HIV-1); test: cell-based or functional assay
[20] = target: Env of 427299.c12.KL.Q169K/I181L virus (HIV-1); test: cell-based or functional assay
[21] = target: Env of CM244NW.4.K169Q virus (HIV-1); test: cell-based or functional assay
[22] = target: Env of CM244NW.6.I181L virus (HIV-1); test: cell-based or functional assay

B1: CH59 (antibody, V domains shown)
VH: EVQLVESGGGLVQPGRSLRLSCAASGFTFDDGAMHWVRQAPGKGLEWVSGISWNSNIIAYADSVKGRFTISRDNAKNSLYLEMNSLRVEDTALYYCAKDSPRGELPLNYWGQGTLVTVSS
VL: SYELTQPPSVSVSPGQTARITCSGDALPKNYAYWYQQKSGQAPVLVIYEDSKRPSGIPERFSGSSSGTMATLTISGAQVEDEADYYCYSTDSSGNHRVFGGGTKLTVL
notes: also called mAb CH59
C.CAP206 gp140CF.12
  EC50: > 667000 pM
AE.A244 V1V2 Tags [1]
  EC50: 14 pM
AE.A244 gp120 delta 11 [2]
  EC50: 87 pM
C.1086 V1V2 Tags [3]
  EC50: 100 pM
gp70 C.1086 V1/V2 [4]
  EC50: 67 pM
AE.A244 V1V2 Tags [5]
  EC50: 1.8 pM
[6]
  EC50: 0.02 µg/mL
AE.A244 V1V2 Tags [7]
  EC50: 14 pM
AE.A244 gp120 delta 11 [8]
  EC50: 87 pM
C.1086 V1V2 Tags [9]
  EC50: 100 pM
gp70 C.1086 V1/V2 [10]
  EC50: 67 pM
Env of AE.92TH023 virus
  ID50 assayed in TZM-bl cells, TH023.6: 1.92 µg/mL
Env of AE.CM244 virus
  ID50 assayed in TZM-bl cells, CM244.ec1: > 50 µg/mL
[11]
  ID50 assayed in TZM-bl cells, TH023.6.K169Q: > 50 µg/mL
[12]
  ID50 assayed in TZM-bl cells, TH023.6.I181L: 5.33 µg/mL
Env of 703357.c02 virus
  ID50 assayed in TZM-bl cells, 703357.c02: > 50 µg/mL
[13]
  ID50 assayed in TZM-bl cells, 703357.2.Q169K: > 50 µg/mL
[14]
  ID50 assayed in TZM-bl cells, 703357.2.Q169KR170Q: > 50 µg/mL
[15]
  ID50 assayed in TZM-bl cells, 703357.2.I181L: > 50 µg/mL
[16]
  ID50 assayed in TZM-bl cells, 703357.2.Q169KI181L: > 50 µg/mL
[17]
  ID50 assayed in TZM-bl cells, 703357.2.Q169KR170QI181L: > 50 µg/mL
Env of 427299.c12 virus
  ID50 assayed in TZM-bl cells, 427299.c12: > 50 µg/mL
[18]
  ID50 assayed in TZM-bl cells, 427299.c12.Q169K: > 50 µg/mL
[19]
  ID50 assayed in TZM-bl cells, 427299.c12.H81L: > 50 µg/mL
[20]
  ID50 assayed in TZM-bl cells, 427299.c12.KL.Q169K/I181L: > 50 µg/mL
[21]
  ID50 assayed in TZM-bl cells, CM244NW.4.K169Q: > 50 µg/mL
[22]
  ID50 assayed in TZM-bl cells, CM244NW.6.I181L: > 50 µg/mL
